Results: patent publication US9389182B2 (University of Southern California, priority 2011, dated 2016)
Blank lines part the entries; values can stand above or below the molecule they belong to.

How the values were obtained:
BSA [1] = molecular target: T1, BSA (Bos taurus, UniProt P02769); assay: Blocking of free carboxyl groups on BSA before AMC labeling (SDS-PAGE, native gels, gel fluorescence); design: species or system bovine; conditions: 50 mg BSA, 1 h
T1 construct: purchased thermo-Fisher BP1605-100
T1 sequence (P02769 25-607): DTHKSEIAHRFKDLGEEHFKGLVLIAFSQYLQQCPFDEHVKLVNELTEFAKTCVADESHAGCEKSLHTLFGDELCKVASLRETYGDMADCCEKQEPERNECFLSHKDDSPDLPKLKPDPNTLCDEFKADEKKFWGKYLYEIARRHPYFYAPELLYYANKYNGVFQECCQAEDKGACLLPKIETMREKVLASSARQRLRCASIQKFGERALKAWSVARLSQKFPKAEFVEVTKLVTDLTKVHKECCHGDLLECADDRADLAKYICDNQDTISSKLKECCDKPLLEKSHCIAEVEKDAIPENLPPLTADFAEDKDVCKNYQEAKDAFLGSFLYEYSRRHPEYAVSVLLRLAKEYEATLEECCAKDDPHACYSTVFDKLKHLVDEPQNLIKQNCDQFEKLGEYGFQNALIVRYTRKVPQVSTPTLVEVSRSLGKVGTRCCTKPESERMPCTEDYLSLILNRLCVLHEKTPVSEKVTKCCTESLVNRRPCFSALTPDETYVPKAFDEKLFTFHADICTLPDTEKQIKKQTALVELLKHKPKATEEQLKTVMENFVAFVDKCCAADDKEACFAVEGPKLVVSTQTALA
Protocol: FIG. 2. […] Values are means±SE, n=3. […] Values are means±SE, n=3. […] A silver stain was later performed. (D) N-(3-Dimethylamineopropyl)-N′-ethylcarbodiimide (1 ng/ml to 100 μg/ml) which blocks free carboxyl groups, was incubated with 50 mg of BSA for 1 hr. BSA was extensively dialyzed then prepared as in panel (C). Increasing concentrations of N-(3-Dimethylamineopropyl)-N′-ethylcarbodiimide, caused a progressive decrease in BSA's electrophoretic mobility, and loss of fluorescence at 66 kDa; a representative gel is shown to the left of the panel, and fluorescence is quantified in the graph to the right; […]
For SDS Page gels, samples were mixed with 25% Nupage loading Dye (Invitrogen, Carlsbad, Calif., USA, catalogue#NP0007) containing 5% 2-mercaptoethanol, Samples were boiled for 3 minutes then added to a 12% Tris-glycine SDS page gel. […] In experiments where gel fluorescence was analyzed, gels were placed in a chamber and exposed to an excitation wavelength of 365 nm. […]

BSA [2] = molecular target: T1, BSA; assay: Blocking of exposed amine groups on BSA before AMC labeling; design: species or system bovine; conditions: 0.5-50 mM
Description: (§1) In some experiments samples were pre-treated with either N-(3-Dimethylaminopropyl)-N′-ethylcarbodiimide hydrochloride (Sigma-Aldrich, MO, USA, catalogue#E6383-1G) to block free protein carboxyl groups, with sulfo-N-hydroxysulfosuccinimide-acetate (Pierce, Rockford, Ill., USA, catalogue #26777) to block free protein amino groups, or with tryptamine (Sigma-Aldrich, MO, USA, catalogue#193747-10G) to disrupt potential non-covalent interactions in protein hydrophobic pockets.
To test whether exposed amine groups on the protein might react with the carboxyl group on the fluorophore, we used 0.5-50 mM sulfo-NHS-acetate was used to block exposed amine groups on BSA. […] This implies that the complex formed between AMC and BSA is independent of exposed protein amine groups.

BSA [3] = molecular target: T1, BSA; assay: Tryptamine competition for non-covalent AMC binding sites on BSA; design: species or system bovine; conditions: 100 fold excess
Description: as §1
Another possibility was that AMC might be sequestered in protein hydrophobic pockets by non-covalent interactions. […] The ability of the BSA/AMC complex to function as a substrate for proteolysis was also tested.

Trypsin = assay: Proteolysis of AMC-labeled proteins by trypsin, fluorescence assay (AMC release); format: biochemical; conditions: for substrate for proteolysis by trypsin, release of fluorescent AMC: AMC-labeled protein 10 μg/ml, 10 μM trypsin
Protocol: FIG. 3. Proteolysis of AMC-labeled Proteins by Trypsin. […] Values are means±SE's, n=3. […] All assay conditions (including trypsin concentration) were identical to those in A, and each substrate protein was used at a final concentration of 10 μg/ml. […] Values are means±SE's, n=3;
FIG. 4. Protease and Substrate Titration, and Particle Size of Proteolytic Degradation Products. […] Values are means±SE's, n=4, for which the fluorescence of controls was subtracted. […] Background fluorescence or radioactivity were measured in the absence of protease (proteolysis buffer alone), and proteolysis was measured by increased fluorescence or acid-soluble radioactivity after incubation with either 10 μM Trypsin, 1 μg/ml purified 20S proteosome, or 150 μg/ml MEF cell lysate. Percent degradation of Hb-AMC is reported as the percentage of total fluorescence that could be released from Hb-AMC after exhaustive proteolytic digestion (not shown), whereas percent degradation of [3H]Hb is reported as the percent of total (initial) radioactive counts released into TCA-soluble form by proteolysis. All values are means±SE's, n=3;

purified 20S proteasome = molecular target: T2, purified 20S proteasome (Homo sapiens, UniProt P28072+P28074+Q99436); assay: Degradation of native and oxidized AMC-labeled proteins by purified 20S proteasome; format: biochemical; conditions: for increase in susceptibility to proteasomal degradation: following mild oxidation with H2O2 (1.0 mM); for substrate for the purified proteasome: unoxidized form
T2 construct: purchased Biomol PW8720-0050
Protocol: (§2) FIG. 7. Proteolytic Susceptibility of Modified AMC-labeled Proteins. (A) The capacity of 20S proteasome to degrade both the native and oxidized forms of Hb-AMC and BSA-AMC was measured. For both assays, 1 μg/ml of purified 20S proteasome was combined with 10 μg/ml of Hb-AMC, Hbox-AMC, BSA-AMC, or BSAox-AMC and incubated for 4 hr at 37° C. Protein degradation was then measured as per FIG. 4. Hbox-AMC, and BSAox were prepared by treating Hb-AMC and BSA-AMC with 1.0 mM H2O2 followed by extensive dialysis. (B) The Capacity of MEF cell lysates to degrade various modified forms of Hb-AMC was measured. Hb-AMC was modified by incubation with dilute HCl at pH 4, 10% 2-mercaptoethanol, 70% methanol, 1 mM peroxynitrite, or 1 mM H2O2, or was boiled at 100° C. for 60 minutes, or subjected to freeze-thawing at −80° C. The substrates were then extensively dialyzed and incubated with 150 μg/ml of MEF cell lysates for 4 hr. In both panels, values are means±SE's, n=3.

MEF cell lysates = assay: Degradation of modified Hb-AMC by MEF cell lysates; format: biochemical, murine; conditions: oxidative modification by H2O2 or peroxynitrite
Protocol: as §2, with “In both panels, values are means±SE's, n=3.” left out
Murine embryonic fibroblasts (MEF) from ATCC (Manassas, Va., USA, catalogue CRL-2214) were grown in Dulbecco's Modified Eagle's Medium (DMEM, Mediatech, Manassas, Va., catalogue #10-013-CV) supplemented with 10% Fetal Bovine Serum (Hyclone, Logan, Utah, catalog #SH30070.03). […] The lysates were then centrifuged at 10,000 g for 10 minutes, after which the supernatants were retained (the pellets discarded) and protein content was determined by BCA assay.

[4] = Stability of Hb-AMC after frozen storage or denaturation (background release of free AMC); format: physicochemical
Protocol: FIG. 5. Stability of AMC-labeled Hemoglobin After Frozen Storage or Denaturation. (A) Hb-AMC was stored at −20° C. for up to 21 weeks. […] Release of free AMC from the Hb-AMC complex (background fluorescence) was then measured in comparison with control (untreated Hb-AMC). In all three panels, values are means±SE's, n=3;
The stability of AMC-labeled substrates, the resistance of the AMC-protein linkage to various treatments, and the reproducibility of proteolytic assays after prolonged storage are important concerns in weighing the usefulness of the technique of various embodiments of the present invention.
Embodiments of the present invention provide a new way to label proteins for studies of oxidation-induced changes in proteolytic susceptibility. In addition to oxidants, proteolytic substrates are often subjected to various other modifying or denaturing conditions, to test for effects on proteolytic susceptibility, therefore it is important to test the stability of AMC-labeled substrates over a range of harsh conditions.

[5] = pH stability of the Hb-AMC complex; format: physicochemical; conditions: pH 1-12, 4 hr, read after readjusting to pH 7.8
Protocol: The stability of protein-AMC adducts over the same broad range of pH was determined. […] The viability of protein-AMC complexes as substrates for proteases was tested with widely different pH optima.

proteinase K = molecular target: T3, proteinase K (Parengyodontium album, UniProt P06873); assay: Proteolysis of Hb-AMC by proteinase K (AMC release); format: biochemical; conditions: pH 11, 4 hr at 37° C.
T3 construct: purchased Oncor S4508
T3 sequence (P06873 106-384): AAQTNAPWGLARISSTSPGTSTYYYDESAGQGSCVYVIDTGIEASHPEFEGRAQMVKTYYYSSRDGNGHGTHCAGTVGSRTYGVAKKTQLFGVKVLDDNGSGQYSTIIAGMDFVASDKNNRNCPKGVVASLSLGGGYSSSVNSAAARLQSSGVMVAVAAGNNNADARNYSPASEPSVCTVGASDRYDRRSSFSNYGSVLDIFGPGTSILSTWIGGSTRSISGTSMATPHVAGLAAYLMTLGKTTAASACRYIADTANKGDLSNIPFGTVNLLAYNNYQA

pepsin = pepsin (Sus scrofa, UniProt P00791); assay: Proteolysis of Hb-AMC by pepsin (AMC release); conditions: pH 2, 4 hr at 37° C.
Chain of pepsin (P00791 60-385): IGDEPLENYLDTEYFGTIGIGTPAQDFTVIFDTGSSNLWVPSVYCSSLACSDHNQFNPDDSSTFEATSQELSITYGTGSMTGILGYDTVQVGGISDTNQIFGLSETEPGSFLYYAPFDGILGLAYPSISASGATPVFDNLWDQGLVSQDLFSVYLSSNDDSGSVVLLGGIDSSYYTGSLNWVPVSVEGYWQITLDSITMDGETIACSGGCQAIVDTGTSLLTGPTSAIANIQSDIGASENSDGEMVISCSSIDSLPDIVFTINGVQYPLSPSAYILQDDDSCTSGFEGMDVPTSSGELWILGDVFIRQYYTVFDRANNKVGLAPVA
Protocol: (§3) In each experiment, pH was adjusted appropriately for the proteinase studied, and samples were incubated at 37° C. for 4 hours.

chymotrypsin = chymotrypsin (Bos taurus, UniProt P00766); assay: Proteolysis of Hb-AMC by chymotrypsin (AMC release); conditions: pH 7.8, 4 hr at 37° C.
Protocol: as §3

[6] = stored at −20° C., repeated trials over 150 days

Molecule: CCN=C=NCCCN(C)C.Cl [N-(3-Dimethylaminopropyl)-N′-ethylcarbodiimide hydrochloride]
protein carboxyl-group blocking, decreased electrophoretic mobility (BSA [1]): dose-dependent protein carboxyl-group blocking | formation of BSA-AMC adducts, fluorescent band at 66 kDa (BSA [1]; then AMC and NaCNBH3): prevented the formation of BSA-AMC adducts

Molecule: CC(=O)ON1C(=O)CC(S(=O)(=O)O)C1=O (centres unmarked) [sulfo-NHS-acetate, sulfo-N-hydroxysulfosuccinimide-acetate]
change in the fluorescence of the BSA-AMC complex (BSA [2]): no significant change | free amine groups on BSA blocked (BSA [2]): 80%

Molecule: NCCc1c[nH]c2ccccc12 [tryptamine]
association between AMC and BSA blocked (BSA [3]): above 30% | effect on effectiveness of BSA as a proteolytic substrate (BSA [3]): minimal effects

increase in susceptibility to proteasomal degradation (purified 20S proteasome): four | substrate for the purified proteasome (purified 20S proteasome): rather poor substrates
Molecule: BSA-AMC: AMC-labeled bovine serum albumin
substrate for proteolysis by trypsin, release of fluorescent AMC (Trypsin): effective and sensitive substrates

Molecule: Hb-AMC: AMC-labeled hemoglobin, made by reductive labeling with AMC and sodium cyanoborohydride
substrate for proteolysis by trypsin, release of fluorescent AMC (Trypsin): effective and sensitive substrates | increase in AMC liberation after trypsin digestion (Trypsin; Hb labeled by full procedure with AMC and NaCNBH3): 80 fold | increase in AMC liberation following incubation with trypsin (Trypsin; Hb reacted with AMC alone, no NaCNBH3): six | background AMC release relative to Hb reacted with AMC alone (Trypsin; full labeling procedure with NaCNBH3): one-sixth | substrate for proteolysis (Trypsin; pH 7.8, 4 hr at 37° C.): excellent substrate | variation of trypsin-induced release of AMC on storage (Trypsin; [6]): less than 15% | sensitivity of proteolytic measurement versus [3H]Hb (purified 20S proteasome; 1 μg/ml purified 20S proteasome): broadly comparable sensitivity | increase in susceptibility to proteasomal degradation (purified 20S proteasome): more than 300 fold | substrate for the purified proteasome (purified 20S proteasome): rather poor substrates | degradation by MEF cell extracts versus unmodified (control) Hb-AMC (MEF cell lysates): significantly increased | stability of the complex to modifying or denaturing conditions ([4]; 1 mM H2O2, 1 mM peroxynitrite, dilute HCl pH 4, 10% 2-mercaptoethanol, freeze-thawing at −80° C., or 50% methanol): almost completely stable | breakdown of the Hb-AMC complex ([4]; boiling (100° C.) for 60 minutes): 3.1% | effect of repeated freeze thaw cycles on stability of the complex (background release of free AMC) ([4]; repeated −20° C. freeze-thaw cycles): did not significantly affect the stability | variation of background AMC release on storage [4, 6]: less than 15% | decrease in stability of the complex [5]: < 0.2% | substrate for proteolysis (proteinase K): excellent substrate | substrate for proteolysis (pepsin): excellent substrate | substrate for proteolysis (chymotrypsin): excellent substrate

Molecule: SOD-AMC: AMC-labeled superoxide dismutase
substrate for proteolysis by trypsin, release of fluorescent AMC (Trypsin): effective and sensitive substrates

B1: catalase: catalase with the AMC fluorophore bound (AMC-labeled catalase) (conjugate, UniProt P00432 2-527, looked up)
Catalase: ADNRDPASDQMKHWKEQRAAQKPDVLTTGGGNPVGDKLNSLTVGPRGPLLVQDVVFTDEMAHFDRERIPERVVHAKGAGAFGYFEVTHDITRYSKAKVFEHIGKRTPIAVRFSTVAGESGSADTVRDPRGFAVKFYTEDGNWDLVGNNTPIFFIRDALLFPSFIHSQKRNPQTHLKDPDMVWDFWSLRPESLHQVSFLFSDRGIPDGHRHMNGYGSHTFKLVNANGEAVYCKFHYKTDQGIKNLSVEDAARLAHEDPDYGLRDLFNAIATGNYPSWTLYIQVMTFSEAEIFPFNPFDLTKVWPHGDYPLIPVGKLVLNRNPVNYFAEVEQLAFDPSNMPPGIEPSPDKMLQGRLFAYPDTHRHRLGPNYLQIPVNCPYRARVANYQRDGPMCMMDNQGGAPNYYPNSFSAPEHQPSALEHRTHFSGDVQRFNSANDDNVTQVRTFYLKVLNEEQRKRLCENIAGHLKDAQLFIQKKAVKNFSDVHPEYGSRIQALLDKYNEEKPKNAVHTYVQHGSHLSAREKANL
modifications: AMC fluorophore label
substrate for proteolysis by trypsin, release of fluorescent AMC (Trypsin): effective and sensitive substrates
